For this assay, the target named is T1, Myc-Tet-C (Drosophila, UniProt M9NEY8-5 1846-2921).
T1 construct: Drosophila Tet, C-terminal domain, aa1846-2921 of Tet-PF (FBpp0306013); also called C-terminal domain of Tet; source: bacteria (E. coli), pET32a(+), purified (Ni-NTA); not shown: Myc, N-terminal, kept
Nature of the assay: pull-down; in vitro binding of two purified proteins (10 μg of each), overnight at 4 °C in Buffer A (50 mM Tris-HCl pH 7.5, 50 mM NaCl, 5% glycerol, 1 mM EDTA, 0.1% Igepal CA-630) with Dynabeads Protein G and 5 μg antibody (anti-HA, anti-Myc or anti-Strep); six washes; immunoblot. As to conditions: both partners purified. In general terms: In western blotting, separated proteins are transferred to a membrane and probed.

T1 sequence (M9NEY8 1785-2860): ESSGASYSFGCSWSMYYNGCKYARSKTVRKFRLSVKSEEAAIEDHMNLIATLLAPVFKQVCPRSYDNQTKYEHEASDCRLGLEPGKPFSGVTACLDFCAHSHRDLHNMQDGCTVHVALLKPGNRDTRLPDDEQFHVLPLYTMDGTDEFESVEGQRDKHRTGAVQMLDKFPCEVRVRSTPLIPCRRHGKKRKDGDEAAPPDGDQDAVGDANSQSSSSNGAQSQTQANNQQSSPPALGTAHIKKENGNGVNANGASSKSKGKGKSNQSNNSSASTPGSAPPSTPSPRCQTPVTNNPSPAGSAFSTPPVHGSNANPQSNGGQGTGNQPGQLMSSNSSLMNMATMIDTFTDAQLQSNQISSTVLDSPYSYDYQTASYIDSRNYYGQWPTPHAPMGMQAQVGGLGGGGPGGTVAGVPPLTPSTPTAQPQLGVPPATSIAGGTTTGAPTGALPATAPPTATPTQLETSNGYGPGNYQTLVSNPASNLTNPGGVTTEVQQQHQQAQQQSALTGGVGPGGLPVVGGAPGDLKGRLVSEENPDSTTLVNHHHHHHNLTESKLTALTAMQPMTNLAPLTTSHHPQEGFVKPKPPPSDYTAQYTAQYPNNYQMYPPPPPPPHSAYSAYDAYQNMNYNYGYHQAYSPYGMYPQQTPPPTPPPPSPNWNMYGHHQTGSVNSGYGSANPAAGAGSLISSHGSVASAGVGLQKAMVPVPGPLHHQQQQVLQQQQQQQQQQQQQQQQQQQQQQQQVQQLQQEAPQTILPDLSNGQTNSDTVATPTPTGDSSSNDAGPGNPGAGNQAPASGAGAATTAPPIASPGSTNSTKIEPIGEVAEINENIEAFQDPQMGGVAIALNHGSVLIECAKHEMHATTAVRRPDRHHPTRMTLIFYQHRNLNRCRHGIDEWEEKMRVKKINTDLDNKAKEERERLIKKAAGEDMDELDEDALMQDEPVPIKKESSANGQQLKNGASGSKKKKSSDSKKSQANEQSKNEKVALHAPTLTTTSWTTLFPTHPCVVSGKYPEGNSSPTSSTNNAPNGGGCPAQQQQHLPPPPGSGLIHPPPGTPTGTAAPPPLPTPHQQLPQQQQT

B1: HA-Stat92E (natural protein, Drosophila, UniProt Q24151 1-761, looked up)
chain: MSLWKRISSHVDCEQRMAAYYEEKGMLELRLCLAPWIEDRIMSEQITPNTTDQLERVALKFNEDLQQKLLSTRTASDQALKFRVVELCALIQRISAVELYTHLRSGLQKELQLVTEKSVAATAGQSMPLNPYNMNNTPMVTGYMVDPSDLLAVSNSCNPPVVQGIGPIHNVQNTGIASPALGMVTPKVELYEVQHQIMQSLNEFGNCANALKLLAQNYSYMLNSTSSPNAEAAYRSLIDEKAAIVLTMRRSFMYYESLHEMVIHELKNWRHQQAQAGNGAPFNEGSLDDIQRCFEMLESFIAHMLAAVKELMRVRLVTEEPELTHLLEQVQNAQKNLVCSAFIVDKQPPQVMKTNTRFAASVRWLIGSQLGIHNNPPTVECIIMSEIQSQRFVTRNTQMDNSSLSGQSSGEIQNASSTMEYQQNNHVFSASFRNMQLKKIKRAEKKGTESVMDEKFALFFYTTTTVNDFQIRVWTLSLPVVVIVHGNQEPQSWATITWDNAFAEIVRDPFMITDRVTWAQLSVALNIKFGSCTGRSLTIDNLDFLYEKLQREERSEYITWNQFCKEPMPDRSFTFWEWFFAIMKLTKDHMLGMWKAGCIMGFINKTKAQTDLLRSVYGIGTFLLRFSDSELGGVTIAYVNENGLVTMLAPWTARDFQVLNLADRIRDLDVLCWLHPSDRNASPVKRDVAFGEFYSKRQEPEPLVLDPVTGYVKSTLHVHVCRNGENGSTSGTPHHAQESMQLGNGDFGMADFDTITNFENF
notes: Drosophila Stat92E, full-length isoform Stat92E-PF; source: bacteria (E. coli), pET32a(+), purified (Ni-NTA); not shown: HA, N-terminal, kept
For B1, the binding result is reported as “binds”.

B2: Strep-Bap55 (natural protein, Drosophila, UniProt Q7K012 1-425, looked up)
chain: MSGGTMLYGGDEIGALVFDPGHHSLRVGYAQEDSPKAEIPSVVGIGAAPETNLDPETKTDNNATPNNADQRKFYVDTNYVTVPRSNMEVQTYMKDGMIDNWDLFEKVIDYAYANVIQSEPEYHPVLFSEASWNVRNNREKLTELMFEKYNVPAFFLVKNAVLAAFSSGRATALVVDSGATHTSAVPVHEGYVLSQAVVKSPLGGDFLSRQCRQHLEKHGIDLSPVYKIASKDVVKERDNGRFTLRKLPENLTQSWQNYMLQLMMQDFQMNVLQVLENPFDERVAAQIPTVHYEFPNGYHQDFGSERFKIAESLFDNAMLGAGQLASTSVGMCDADVRLSLFGSVVVTGGNTLLQGFPERLNRDLQLRAPSNTRLKMISANGSVERRFGAWIGGSILASIGTFQQMWISSQEYEEAGKSQVERKCP
notes: Drosophila Bap55, full-length Bap55-PA; pFastBac-HTB vectors usually also add an N-terminal His6 tag; source: insect cells (baculovirus), purified (Strep-Tactin XT, Superdex 200)
Consider B2, for which the binding result is reported as “binds”.

For the origin of these results see PMC11021519, “Niche Tet maintains germline stem cells independently of dioxygenase activity” (The EMBO Journal, 2024).
